Source: US20120316071A1 (published 2012)

How the values were obtained:
[1] = biological target: T1, Recombinant Human DLL4 (R&D Systems Cat#1506-D4/CF) (human, UniProt Q9NR61 27-524); assay: ECL (Meso Scale Discovery) multispot binding assay, DLL4 immobilised, Fab at 100 nM
T1 construct: Bought recombinant protein; also called delta-like protein 4; Delta-like 4

[2] = biological target: T2, Recombinant Human DLL4 (human, UniProt Q9NR61 27-524); assay: ECL (MSD) 96-well plate assay; plate coated with 30 ug/mL DLL4; 0.02 uM Fab
T2 construct: Bought recombinant protein (R&D Systems Cat#1506-D4/CF); also called delta-like protein 4; Delta-like 4

[3] = biological target: T2, Recombinant Human DLL4; assay: ECL (MSD) 96-well plate assay; plate coated with 15 ug/mL DLL4; 0.004 uM Fab

Binder	ECL signal [1]	ECL signal [2]	Signal/Noise [2]	ECL signal [3]	Signal/Noise [3]
Fab VH5-51_IGHD5-18*01>3_IGHJ4*01 G100K/G104T (H:KT) & V3-4_IGLJ1*01 S28A (Fab, V domains shown, Fab expressed in E. coli; Plasmid A adds CH1 with His6 and Flag tags to the heavy chain; Plasmid E adds lambda CL to the light chain; also called G100K/G104T & S28A (light chain)) VH: EVQLVQSGAEVKKPGESLKISCKGSGYSFTSYWIGWVRQMPGKGLEWMGIIYPGDSDTRYSPSFQGQVTISADKSISTAYLQWSSLKASDTAMYYCARRKYSYTYDYFDYWGQGTLVTVSS VL: QTVVTQEPSFSVSPGGTVTLTCGLSSGAVSTSYYPSWYQQTPGQAPRTLIYSTNTRSSGVPDRFSGSILGNKAALTITGAQADDESDYYCVLYMGSGISYVFGTGTKVTVL	11500	–	–	–	–
Fab VH5-51_IGHD5-18*01>3_IGHJ4*01 G100K/G104T (H:KT) & V3-4_IGLJ1*01 S32A (Fab, V domains shown, Fab expressed in E. coli; Plasmid A adds CH1 with His6 and Flag tags to the heavy chain; Plasmid E adds lambda CL to the light chain; also called G100K/G104T & S32A) VH: EVQLVQSGAEVKKPGESLKISCKGSGYSFTSYWIGWVRQMPGKGLEWMGIIYPGDSDTRYSPSFQGQVTISADKSISTAYLQWSSLKASDTAMYYCARRKYSYTYDYFDYWGQGTLVTVSS VL: QTVVTQEPSFSVSPGGTVTLTCGLSSGSVSTAYYPSWYQQTPGQAPRTLIYSTNTRSSGVPDRFSGSILGNKAALTITGAQADDESDYYCVLYMGSGISYVFGTGTKVTVL	10400	–	–	–	–
Fab VH5-51_IGHD5-18*01>3_IGHJ4*01 G100K/G104T (H:KT) & V3-4_IGLJ1*01 S36A (Fab, V domains shown, Fab expressed in E. coli; Plasmid A adds CH1 with His6 and Flag tags to the heavy chain; Plasmid E adds lambda CL to the light chain; also called G100K/G104T & S36A) VH: EVQLVQSGAEVKKPGESLKISCKGSGYSFTSYWIGWVRQMPGKGLEWMGIIYPGDSDTRYSPSFQGQVTISADKSISTAYLQWSSLKASDTAMYYCARRKYSYTYDYFDYWGQGTLVTVSS VL: QTVVTQEPSFSVSPGGTVTLTCGLSSGSVSTSYYPAWYQQTPGQAPRTLIYSTNTRSSGVPDRFSGSILGNKAALTITGAQADDESDYYCVLYMGSGISYVFGTGTKVTVL	9690	–	–	–	–
Fab VH5-51_IGHD5-18*01>3_IGHJ4*01 G100K/G104T (H:KT) & V3-4_IGLJ1*01 S30A (Fab, V domains shown, Fab expressed in E. coli; Plasmid A adds CH1 with His6 and Flag tags to the heavy chain; Plasmid E adds lambda CL to the light chain; also called G100K/G104T & S30A) VH: EVQLVQSGAEVKKPGESLKISCKGSGYSFTSYWIGWVRQMPGKGLEWMGIIYPGDSDTRYSPSFQGQVTISADKSISTAYLQWSSLKASDTAMYYCARRKYSYTYDYFDYWGQGTLVTVSS VL: QTVVTQEPSFSVSPGGTVTLTCGLSSGSVATSYYPSWYQQTPGQAPRTLIYSTNTRSSGVPDRFSGSILGNKAALTITGAQADDESDYYCVLYMGSGISYVFGTGTKVTVL	10300	–	–	–	–
Fab VH5-51_IGHD5-18*01>3_IGHJ4*01 G100K/G104T (H:KT) & V3-4_IGLJ1*01 G27A (Fab, V domains shown, Fab expressed in E. coli; Plasmid A adds CH1 with His6 and Flag tags to the heavy chain; Plasmid E adds lambda CL to the light chain; also called G100K/G104T & G27A) VH: EVQLVQSGAEVKKPGESLKISCKGSGYSFTSYWIGWVRQMPGKGLEWMGIIYPGDSDTRYSPSFQGQVTISADKSISTAYLQWSSLKASDTAMYYCARRKYSYTYDYFDYWGQGTLVTVSS VL: QTVVTQEPSFSVSPGGTVTLTCGLSSASVSTSYYPSWYQQTPGQAPRTLIYSTNTRSSGVPDRFSGSILGNKAALTITGAQADDESDYYCVLYMGSGISYVFGTGTKVTVL	10700	–	–	–	–
Fab VH1-46_IGHD6-6*01_IGHJ1*01 & L6_IGKJ1*01 (Fab, V domains shown, Tested as a Fab made in E. coli; VH was cloned into Plasmid A (CH1 constant region, His6 and Flag tags) and the kappa VL into Plasmid C (kappa CL); also called parent "Hit" Fab; parental) VH: QVQLVQSGAEVKKPGASVKVSCKASGYTFTSYYMHWVRQAPGQGLEWMGIINPSGGSTSYAQKFQGRVTMTRDTSTSTVYMELSSLRSEDTAVYYCAREEYSSSSAEYFQHWGQGTLVTVSS VL: not shown	–	8710	23	4260	29.2
Fab VH1-46_IGHD6-6*01_IGHJ1*01 S103A & L6_IGKJ1*01 (Fab, V domains shown, Heavy chain CDR3 alanine mutant of the parent Fab; Fab format with CH1, kappa CL, His6 and Flag tags from the expression plasmids) VH: QVQLVQSGAEVKKPGASVKVSCKASGYTFTSYYMHWVRQAPGQGLEWMGIINPSGGSTSYAQKFQGRVTMTRDTSTSTVYMELSSLRSEDTAVYYCAREEYSASSAEYFQHWGQGTLVTVSS VL: not shown	–	11600	30.5	5150	35.3
Fab VH1-46_IGHD6-6*01_IGHJ1*01 H111A & L6_IGKJ1*01 (Fab, V domains shown, Heavy chain CDR3 alanine mutant of the parent Fab; Fab format with CH1, kappa CL, His6 and Flag tags from the expression plasmids) VH: QVQLVQSGAEVKKPGASVKVSCKASGYTFTSYYMHWVRQAPGQGLEWMGIINPSGGSTSYAQKFQGRVTMTRDTSTSTVYMELSSLRSEDTAVYYCAREEYSSSSAEYFQAWGQGTLVTVSS VL: not shown	–	11600	30.6	5020	34.4
Fab VH1-46_IGHD6-6*01_IGHJ1*01 E100A & L6_IGKJ1*01 (Fab, V domains shown, Heavy chain CDR3 alanine mutant of the parent Fab; Fab format with CH1, kappa CL, His6 and Flag tags from the expression plasmids) VH: QVQLVQSGAEVKKPGASVKVSCKASGYTFTSYYMHWVRQAPGQGLEWMGIINPSGGSTSYAQKFQGRVTMTRDTSTSTVYMELSSLRSEDTAVYYCAREAYSSSSAEYFQHWGQGTLVTVSS VL: not shown	–	1300	3.4	536	3.7
Fab VH1-46_IGHD6-6*01_IGHJ1*01 S102A & L6_IGKJ1*01 (Fab, V domains shown, Heavy chain CDR3 alanine mutant of the parent Fab; Fab format with CH1, kappa CL, His6 and Flag tags from the expression plasmids) VH: QVQLVQSGAEVKKPGASVKVSCKASGYTFTSYYMHWVRQAPGQGLEWMGIINPSGGSTSYAQKFQGRVTMTRDTSTSTVYMELSSLRSEDTAVYYCAREEYASSSAEYFQHWGQGTLVTVSS VL: not shown	–	19100	50.3	10300	70.8
